The values that follow are results of earlier work, collected in publication PMC1074345.

For orientation: Kd means the constant that tells how readily two partners part at equilibrium.

The target of the data set is Angiotensin II AngII (Homo sapiens) (UniProt P01019). The data set can be described thus: radioligand.
Chain of UniProt P01019 (P01019 whole entry, looked up): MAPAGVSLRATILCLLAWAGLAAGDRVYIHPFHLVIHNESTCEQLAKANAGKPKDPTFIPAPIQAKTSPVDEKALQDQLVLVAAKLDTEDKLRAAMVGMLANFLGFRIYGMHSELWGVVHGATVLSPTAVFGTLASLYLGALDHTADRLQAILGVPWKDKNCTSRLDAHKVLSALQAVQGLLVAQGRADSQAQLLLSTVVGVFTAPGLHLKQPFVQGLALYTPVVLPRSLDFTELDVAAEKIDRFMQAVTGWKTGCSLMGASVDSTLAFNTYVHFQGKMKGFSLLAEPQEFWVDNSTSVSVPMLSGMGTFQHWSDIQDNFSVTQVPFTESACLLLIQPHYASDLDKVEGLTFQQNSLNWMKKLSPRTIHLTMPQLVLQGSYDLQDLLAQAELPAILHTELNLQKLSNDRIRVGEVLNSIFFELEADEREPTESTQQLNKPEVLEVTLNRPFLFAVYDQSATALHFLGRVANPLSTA

Take AT1 receptor (from UniProt P30556): the Kd is 0.36 nM.
With AT2 receptor (from UniProt P50052), the Kd is 0.17 nM.
